Measured values taken from patent publication US20200405889A1 (WASHINGTON UNIVERSITY, published 2020).
Where no end group is shown, it is not given here. [ ]: non-standard residue; d: D form.

Target: mouse chemokine (C-C motif) receptor 2 (CCR2) (mouse, UniProt P51683 1-373)
Test: cell-based or functional assay

Sequence of mouse chemokine (C-C motif) receptor 2 (CCR2) (P51683 whole entry): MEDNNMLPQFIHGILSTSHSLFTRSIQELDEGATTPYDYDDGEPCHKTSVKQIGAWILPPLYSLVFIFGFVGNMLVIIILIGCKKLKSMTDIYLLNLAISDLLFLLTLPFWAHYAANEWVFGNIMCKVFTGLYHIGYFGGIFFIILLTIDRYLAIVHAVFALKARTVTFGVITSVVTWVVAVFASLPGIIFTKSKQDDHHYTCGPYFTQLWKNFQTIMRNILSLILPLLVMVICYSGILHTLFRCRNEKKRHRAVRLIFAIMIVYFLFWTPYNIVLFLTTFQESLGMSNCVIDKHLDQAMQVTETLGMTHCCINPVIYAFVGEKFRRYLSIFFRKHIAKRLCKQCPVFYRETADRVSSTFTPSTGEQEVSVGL

B1: ^64CuAuNCs-ECL1i (other)
peptide: [dL]G[dT][dF][dL][dK][dC]
modifications: not fully specified (residue 7); also: peptide joined via TA-PEG-Maleimide to a gold nanocluster doped with 64Cu, copy number not given here
graft/native lung uptake ratio, PET at 4 hours: 7.24 ratio | graft/native lung uptake ratio, PET at 24 hours: 8.44 ratio | graft/native lung uptake ratio, PET, printed 'At 4 hours after transplantation': 6.58 ratio
